Here are results for 1 substance from patent US20230074657A1.

The assay concerns the target Tag1-LAG3 protein (UniProt P18627). Put plainly: HTRF blocking assay (Cisbio kit): Tag1-LAG3 with Tag2-FGL1 and antibody.

Chain of Tag1-LAG3 protein (P18627 23-450): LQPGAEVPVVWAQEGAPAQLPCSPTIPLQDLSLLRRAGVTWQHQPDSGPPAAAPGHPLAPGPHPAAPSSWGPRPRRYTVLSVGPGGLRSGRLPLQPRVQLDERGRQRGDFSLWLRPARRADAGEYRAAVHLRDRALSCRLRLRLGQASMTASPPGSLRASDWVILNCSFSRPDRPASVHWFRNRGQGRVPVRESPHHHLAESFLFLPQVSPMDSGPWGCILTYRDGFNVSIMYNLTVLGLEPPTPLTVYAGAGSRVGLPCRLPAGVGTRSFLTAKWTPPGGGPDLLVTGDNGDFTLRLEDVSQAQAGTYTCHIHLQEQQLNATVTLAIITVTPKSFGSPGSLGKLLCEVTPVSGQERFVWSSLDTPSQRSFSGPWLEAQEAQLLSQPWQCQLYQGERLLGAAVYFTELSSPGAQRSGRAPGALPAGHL

As to Positive control (ab40465) (antibody), the IC50 (read off the curve) amounted to 2 µg/mL.
